# In article PMC3553216 (Biochemistry, 2013):
# Where two headings read alike, the source gives them in different places.
# What was measured:
# [1] = AUC
# [2] = target: full-length SaPC F403A mutant (Staphylococcus aureus); assay: SEC
# [3] = target: full-length SaPC F403A mutant (Staphylococcus aureus); assay: AUC
# [4] = target: full-length SaPC F403A mutant (Staphylococcus aureus); assay: AUC; remark: listed apart in the source
# [5] = target: full-length SaPC K442E mutant (Staphylococcus aureus); assay: SEC
# [6] = target: full-length SaPC K442E mutant (Staphylococcus aureus); assay: AUC
# [7] = target: full-length SaPC K442E mutant (Staphylococcus aureus); assay: AUC; remark: listed apart in the source
# [8] = target: full-length SaPC R54E mutant (Staphylococcus aureus); assay: SEC
# [9] = target: full-length SaPC R54E mutant (Staphylococcus aureus); assay: AUC
# [10] = target: full-length SaPC R54E mutant (Staphylococcus aureus); assay: AUC; remark: listed apart in the source
# [11] = target: isolated BC domain of SaPC, R54E mutant (Staphylococcus aureus); assay: AUC
# [12] = target: the molecule itself; assay: AUC
# [13] = target: the molecule itself; assay: AUC; remark: listed apart in the source
molecule,measurement,setting,value
full-length SaPC F403A mutant,Monomer (%),[1],9%
full-length SaPC F403A mutant (enzyme),stoichiometry N,[2],4
same,Dimer (%),[3],2%
same,Kd,[3],450 nM
same,Tetramer (%),[3],85%
same,Kd,[4],11 nM
full-length SaPC K442E mutant,Monomer (%),[1],10%
full-length SaPC K442E mutant (enzyme),stoichiometry N,[5],2
same,Dimer (%),[6],65%
same,Kd,[6],820 nM
same,Kd,[7],840000 nM
full-length SaPC R54E mutant,Monomer (%),[1],4%
full-length SaPC R54E mutant (enzyme),stoichiometry N,[8],4
same,Dimer (%),[9],0%
same,Kd,[9],530 nM
same,Tetramer (%),[9],96%
same,Kd,[10],3 nM
"isolated BC domain of SaPC, R54E mutant (domain or fragment)",Kd,[11],195000 nM
"wild-type full-length Staphylococcus aureus pyruvate carboxylase (enzyme, UniProt A0A0H3JRU9 1-1150, looked up) MKQIKKLLVANRGEIAIRIFRAAAELDISTVAIYSNEDKSSLHRYKADESYLVGSDLGPAESYLNIERIIDVAKQANVDAIHPGYGFLSENEQFARRCAEEGIKFIGPHLEHLDMFGDKVKARTTAIKADLPVIPGTDGPIKSYELAKEFAEEAGFPLMIKATSGGGGKGMRIVREESELEDAFHRAKSEAEKSFGNSEVYIERYIDNPKHIEVQVIGDEHGNIVHLFERDCSVQRRHQKVVEVAPSVGLSPTLRQRICDAAIQLMENIKYVNAGTVEFLVSGDEFFFIEVNPRVQVEHTITEMVTGIDIVKTQILVAAGADLFGEEINMPQQKDITTLGYAIQCRITTEDPLNDFMPDTGTIIAYRSSGGFGVRLDAGDGFQGAEISPYYDSLLVKLSTHAISFKQAEEKMVRSLREMRIRGVKTNIPFLINVMKNKKFTSGDYTTKFIEETPELFDIQPSLDRGTKTLEYIGNVTINGFPNVEKRPKPDYELASIPTVSSSKIASFSGTKQLLDEVGPKGVAEWVKKQDDVLLTDTTFRDAHQSLLATRVRTKDMINIASKTADVFKDGFSLEMWGGATFDVAYNFLKENPWERLERLRKAIPNVLFQMLLRASNAVGYKNYPDNVIHKFVQESAKAGIDVFRIFDSLNWVDQMKVANEAVQEAGKISEGTICYTGDILNPERSNIYTLEYYVKLAKELEREGFHILAIKDMAGLLKPKAAYELIGELKSAVDLPIHLHTHDTSGNGLLTYKQAIDAGVDIIDTAVASMSGLTSQPSANSLYYALNGFPRHLRTDIEGMESLSHYWSTVRTYYSDFESDIKSPNTEIYQHEMPGGQYSNLSQQAKSLGLGERFDEVKDMYRRVNFLFGDIVKVTPSSKVVGDMALYMVQNDLDEQSVITDGYKLDFPESVVSFFKGEIGQPVNGFNKDLQAVILKGQEALTARPGEYLEPVDFEKVRELLEEEQQGPVTEQDIISYVLYPKVYEQYIQTRNQYGNLSLLDTPTFFFGMRNGETVEIEIDKGKRLIIKLETISEPDENGNRTIYYAMNGQARRIYIKDENVHTNANVKPKADKSNPSHIGAQMPGSVTEVKVSVGETVKANQPLLITEAMKMETTIQAPFDGVIKQVTVNNGDTIATGDLLIEIEKATD",Kd,[12],750 ± 60 nM
same,Kd,[13],8 ± 0.6 nM
